Results published in patent US20240279290A1.
“And” between values parts separate entries of the source, which are not always exact repeats. Identical values can stand only once.

Target: human CD40 on primary human B cells or monocyte-derived dendritic cells (human) (UniProt P25942)
Assay: cell-based or functional assay

Chain of human CD40 on primary human B cells or monocyte-derived dendritic cells (human) (P25942 21-277 H80K/K81H limits assumed): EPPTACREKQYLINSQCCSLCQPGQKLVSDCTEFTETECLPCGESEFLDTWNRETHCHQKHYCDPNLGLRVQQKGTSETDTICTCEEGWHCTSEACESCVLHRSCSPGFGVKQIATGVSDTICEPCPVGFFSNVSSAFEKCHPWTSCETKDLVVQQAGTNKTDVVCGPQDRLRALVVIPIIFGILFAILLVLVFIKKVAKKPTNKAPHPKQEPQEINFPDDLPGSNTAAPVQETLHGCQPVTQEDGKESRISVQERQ

anti-CD40 monoclonal antibody corresponding to sequence 21.4.1 of U.S. Pat. No. 7,338,660 B2
EC50 [nM], % CD86, human B cells + FAP-CHO, w HSA: 0.88 nM and 0.3 nM | EC50 [nM], % CD86, human B cells + FAP-CHO, w/o HSA: 1.9 nM and 0.51 nM | EC50 [nM], MFI CD86, human B cells + FAP-CHO, w HSA: 0.51 nM and 2.05 nM | EC50 [nM], MFI CD86, human B cells + FAP-CHO, w/o HSA: 1.13 nM and 4.73 nM | Efficacy [MFI at highest dose], MFI CD86, human B cells + FAP-CHO, w HSA: 1530 MFI and 1870 MFI | Efficacy [MFI at highest dose], MFI CD86, human B cells + FAP-CHO, w/o HSA: 1340 MFI and 2060 MFI | Efficacy [MFI at highest dose], MFI CD86, human B cells + WT-CHO (no FAP), w HSA: 1900 MFI and 1470 MFI | Efficacy [MFI at highest dose], MFI CD86, human B cells + WT-CHO (no FAP), w/o HSA: 2050 MFI and 1390 MFI
